The results in this text go back to patent US10597674B2, “HPPD variants and methods of use” (BASF Agricultural Solutions Seed, US LLC, priority 2015, dated 2020).

Read-outs that look alike come from different tables or passages of the source.

Data set [1] concerns E. coli cells expressing an HPPD polypeptide. The data set is described as follows: Brown color bioassay in liquid culture, residual brown color formation (BCF), OD440 after 96 hours. It counts as cell-based. In outline: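 E. coli expressing HPPD variants were grown at 30 degrees Celsius from OD600 0.3-0.5 in LB with 5 mM HPP, with or without herbicide (e.g. Cmpd. 1, 1000 μM). After 96 hours, supernatant OD440 was measured; residual brown colour formation compares pigment with and without inhibitor.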

The test system of data set [2] is transgenic soybean T0 events. The data set can be described thus: Greenhouse spray test of T0 soybean events, herbicide tolerance rating 0-3. It counts as in vivo. Conditions: wild-type soybean plants, 300 g AI/ha, 5 days after spraying.
The subject of data set [3] is HPPD polypeptides (wild-type SEQ ID NO:1 and mutants). The conditions noted are these: high substrate concentration; for Residual activity: kapp normalized to kapp without inhibitor; for Residual turnover: total change in signal normalized to no inhibitor.
[4] abbreviates: in the presence of Cmpd. 1, 15 μM inhibitor.
[5] abbreviates: in the presence of Cmpd. 2, 15 μM inhibitor.
Where [6] appears, read: in the presence of diketonitrile (DKN), 60 μM inhibitor.
Where [7] appears, read: in the presence of mesotrione (MST), 60 μM inhibitor.

On to `CSc1c(C(F)(F)F)ccc(C(=O)Nc2nnnn2C)c1Cl` [Cmpd. 1, 2-chloro-3-(methylsulfanyl)-N-(1-methyl-1H-tetrazol-5-yl)-4-(trifluoromethyl)benzamide, reference compound], for which, in data set [1] (brown color formation in absence of Cmpd. 1, culture supernatant after 96 hours, 5 mM HPP), the “Control BCF OD440nm” value is recorded as 2.66. Moreover, in data set [1] (brown color formation with Cmpd. 1 (1000 μM) relative to without, after 96 hours), the “Residual BCF OD440nm [%]” value came to 15%. In addition, the “leaf damage of the top two trifoliate leaves” value in data set [2] is on record as “more than 95%”. The Residual activity in data set [3] (setting [4]) is reported as 6%; in data set [3] (setting [5]) it was 8%; in data set [3] (setting [6]), 7%; in data set [3] (setting [7]) it was 6%. For the same compound, the Residual turnover in data set [3] (setting [4]) came out at 6%; in data set [3] (setting [5]), 8%; in data set [3] (setting [6]), 8%; in data set [3] (setting [7]) it was 8%.
